The record followed here is paper PMC6007033.

For test [1], the target named is BG505.T332N.SOSIP.664.113C.429GCG gp140 trimer (HIV-1 BG505). Nature of the test: SPR. For orientation: In SPR one partner is held on a chip, and binding of the other changes the refractive index at the surface.
Test [2] has as its target BG505.T332N.SOSIP.664.113C.431GCG gp140 trimer (HIV-1 BG505). In words: SPR.

With two-domain soluble CD4 (receptor), the reduction in binding affinity against the unmutated trimer in test [1] and in test [2] was 3 log throughout.
